Assay results from patent US20230250154A1 (CYTONICS, published 2023).

T1: MMP2 (human, UniProt P08253 110-660, limits assumed)
T1 sequence (looked up): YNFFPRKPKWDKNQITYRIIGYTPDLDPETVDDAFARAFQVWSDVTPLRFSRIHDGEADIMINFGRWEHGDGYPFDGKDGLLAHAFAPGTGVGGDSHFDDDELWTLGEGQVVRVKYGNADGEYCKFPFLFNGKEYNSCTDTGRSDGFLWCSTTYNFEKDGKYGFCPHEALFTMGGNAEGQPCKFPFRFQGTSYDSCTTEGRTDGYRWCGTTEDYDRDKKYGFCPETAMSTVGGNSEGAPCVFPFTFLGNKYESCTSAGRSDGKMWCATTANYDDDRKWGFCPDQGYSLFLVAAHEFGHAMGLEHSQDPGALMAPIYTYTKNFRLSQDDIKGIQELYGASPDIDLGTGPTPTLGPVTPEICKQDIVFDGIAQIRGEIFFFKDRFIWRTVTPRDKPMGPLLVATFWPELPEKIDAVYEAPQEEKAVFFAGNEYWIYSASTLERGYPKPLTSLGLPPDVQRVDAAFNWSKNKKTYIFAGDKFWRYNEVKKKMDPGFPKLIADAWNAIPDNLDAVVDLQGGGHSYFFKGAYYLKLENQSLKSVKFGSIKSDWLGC

T2: ADAMTS4 (human, UniProt O75173 213-685, limits assumed)
T2 sequence (looked up): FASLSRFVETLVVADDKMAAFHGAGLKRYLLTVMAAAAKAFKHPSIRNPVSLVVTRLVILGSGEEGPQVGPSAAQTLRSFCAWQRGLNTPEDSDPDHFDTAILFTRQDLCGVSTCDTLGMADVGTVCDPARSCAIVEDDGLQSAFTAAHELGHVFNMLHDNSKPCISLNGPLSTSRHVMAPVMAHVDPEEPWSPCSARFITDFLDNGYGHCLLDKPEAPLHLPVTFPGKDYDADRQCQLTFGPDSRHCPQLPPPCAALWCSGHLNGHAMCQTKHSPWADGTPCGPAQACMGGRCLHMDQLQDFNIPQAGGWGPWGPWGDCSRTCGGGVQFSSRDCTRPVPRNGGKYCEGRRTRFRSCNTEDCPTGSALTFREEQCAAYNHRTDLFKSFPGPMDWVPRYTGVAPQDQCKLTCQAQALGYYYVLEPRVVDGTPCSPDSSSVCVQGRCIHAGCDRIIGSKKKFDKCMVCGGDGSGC

T3: ADAMTS5 (human, UniProt Q9UNA0 262-622, limits assumed)
T3 sequence (looked up): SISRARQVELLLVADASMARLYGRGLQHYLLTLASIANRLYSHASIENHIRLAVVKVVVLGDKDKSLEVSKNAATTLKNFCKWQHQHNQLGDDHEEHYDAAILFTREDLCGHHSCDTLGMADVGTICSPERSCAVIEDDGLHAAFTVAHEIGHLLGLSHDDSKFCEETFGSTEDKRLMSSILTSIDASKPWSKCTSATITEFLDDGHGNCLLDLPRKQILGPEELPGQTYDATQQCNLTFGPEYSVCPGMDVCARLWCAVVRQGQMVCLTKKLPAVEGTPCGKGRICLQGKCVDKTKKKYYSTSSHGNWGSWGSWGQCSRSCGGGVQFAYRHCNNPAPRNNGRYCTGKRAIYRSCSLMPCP

T4: MMP1 (human, UniProt P03956 100-469, limits assumed)
T4 sequence (looked up): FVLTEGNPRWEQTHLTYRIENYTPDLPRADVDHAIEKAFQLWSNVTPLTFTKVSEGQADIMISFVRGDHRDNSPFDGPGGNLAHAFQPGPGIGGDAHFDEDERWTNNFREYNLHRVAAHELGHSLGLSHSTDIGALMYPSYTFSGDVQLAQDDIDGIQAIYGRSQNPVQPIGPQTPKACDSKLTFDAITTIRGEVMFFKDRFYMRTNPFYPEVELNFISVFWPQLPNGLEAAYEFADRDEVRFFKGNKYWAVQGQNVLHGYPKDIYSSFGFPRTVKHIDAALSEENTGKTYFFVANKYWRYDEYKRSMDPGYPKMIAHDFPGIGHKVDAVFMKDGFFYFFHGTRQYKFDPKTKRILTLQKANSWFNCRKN


Tests used:
Assay in all cases: cell-based or functional assay
MMP13 = MMP13 (human, UniProt P45452 104-471, limits assumed)
MMP2 = molecular target: T1, MMP2
ADAMTS4 = molecular target: T2, ADAMTS4
MMP8 = MMP8 (human, UniProt P22894 101-467, limits assumed)
Sequence of MMP8 (P22894 101-467 limits assumed): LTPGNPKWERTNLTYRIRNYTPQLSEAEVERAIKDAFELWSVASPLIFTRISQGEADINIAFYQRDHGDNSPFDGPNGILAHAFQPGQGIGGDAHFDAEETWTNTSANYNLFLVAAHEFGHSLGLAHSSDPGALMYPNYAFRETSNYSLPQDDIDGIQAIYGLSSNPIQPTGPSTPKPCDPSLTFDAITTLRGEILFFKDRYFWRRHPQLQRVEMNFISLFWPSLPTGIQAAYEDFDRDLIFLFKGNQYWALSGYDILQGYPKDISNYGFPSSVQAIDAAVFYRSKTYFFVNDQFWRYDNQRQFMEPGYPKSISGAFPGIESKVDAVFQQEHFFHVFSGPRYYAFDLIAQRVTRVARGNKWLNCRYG

ADAMTS5 = molecular target: T3, ADAMTS5
MMP1 = molecular target: T4, MMP1
MMP3 = MMP3 (human, UniProt P08254 100-477, limits assumed)
Sequence of MMP3 (P08254 100-477 limits assumed): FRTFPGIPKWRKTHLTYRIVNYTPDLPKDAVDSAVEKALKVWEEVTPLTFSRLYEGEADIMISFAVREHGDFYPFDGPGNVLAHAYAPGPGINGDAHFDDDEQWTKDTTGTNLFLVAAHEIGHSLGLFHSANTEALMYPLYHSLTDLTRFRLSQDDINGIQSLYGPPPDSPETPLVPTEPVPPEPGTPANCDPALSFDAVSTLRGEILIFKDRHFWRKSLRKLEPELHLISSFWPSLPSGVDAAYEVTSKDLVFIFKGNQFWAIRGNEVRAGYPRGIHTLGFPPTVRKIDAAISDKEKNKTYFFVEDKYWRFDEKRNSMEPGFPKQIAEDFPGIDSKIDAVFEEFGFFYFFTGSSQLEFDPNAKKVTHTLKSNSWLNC

MMP9 = MMP9 (human, UniProt P14780 107-707, limits assumed)
Sequence of MMP9 (P14780 107-707 limits assumed): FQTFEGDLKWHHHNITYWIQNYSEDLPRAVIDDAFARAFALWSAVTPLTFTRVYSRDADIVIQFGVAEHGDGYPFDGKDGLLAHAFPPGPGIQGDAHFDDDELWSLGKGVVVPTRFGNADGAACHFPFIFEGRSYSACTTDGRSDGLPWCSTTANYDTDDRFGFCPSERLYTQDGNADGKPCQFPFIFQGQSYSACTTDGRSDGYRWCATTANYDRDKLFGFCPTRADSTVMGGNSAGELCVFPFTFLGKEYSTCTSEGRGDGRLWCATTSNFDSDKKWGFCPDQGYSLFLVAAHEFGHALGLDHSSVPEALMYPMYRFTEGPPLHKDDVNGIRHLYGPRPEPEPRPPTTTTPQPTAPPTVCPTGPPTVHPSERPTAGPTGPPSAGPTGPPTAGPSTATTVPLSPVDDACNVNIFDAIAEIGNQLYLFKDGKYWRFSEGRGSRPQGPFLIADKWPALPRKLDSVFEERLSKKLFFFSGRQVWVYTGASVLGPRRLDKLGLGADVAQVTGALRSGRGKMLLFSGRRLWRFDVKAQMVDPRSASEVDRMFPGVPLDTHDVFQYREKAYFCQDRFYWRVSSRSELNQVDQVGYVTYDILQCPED

bovine trypsin = bovine trypsin (bovine, UniProt P00760 24-246)
Sequence of bovine trypsin (P00760 24-246): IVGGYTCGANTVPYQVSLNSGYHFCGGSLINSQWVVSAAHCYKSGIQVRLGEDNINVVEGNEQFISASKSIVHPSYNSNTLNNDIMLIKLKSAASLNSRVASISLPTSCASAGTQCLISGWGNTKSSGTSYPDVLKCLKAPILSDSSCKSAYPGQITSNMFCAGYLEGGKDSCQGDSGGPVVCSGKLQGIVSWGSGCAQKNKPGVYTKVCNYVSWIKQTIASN

chymotrypsin = molecular target: chymotrypsin
Elastase = molecular target: Elastase
MMP12 = MMP12 (human, UniProt P39900 106-470, limits assumed)
Sequence of MMP12 (P39900 106-470 limits assumed): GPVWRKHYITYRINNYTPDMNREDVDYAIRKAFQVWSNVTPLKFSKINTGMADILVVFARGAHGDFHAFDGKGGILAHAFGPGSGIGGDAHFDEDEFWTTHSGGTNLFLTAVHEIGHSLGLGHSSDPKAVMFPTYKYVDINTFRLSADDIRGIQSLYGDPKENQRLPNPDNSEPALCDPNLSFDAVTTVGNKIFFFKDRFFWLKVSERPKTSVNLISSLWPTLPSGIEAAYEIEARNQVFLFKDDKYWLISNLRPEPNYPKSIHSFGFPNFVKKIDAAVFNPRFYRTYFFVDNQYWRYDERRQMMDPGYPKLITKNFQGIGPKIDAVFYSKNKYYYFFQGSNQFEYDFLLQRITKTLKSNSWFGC

Row | Protease Inhibition (% of WT) (MMP13) | Protease Inhibition (% of WT) (MMP2) | Protease Inhibition (% of WT) (ADAMTS4) | Protease Inhibition (% of WT) (MMP8) | Protease Inhibition (% of WT) (ADAMTS5) | Protease Inhibition (% of WT) (MMP1) | Protease Inhibition (% of WT) (MMP3) | Protease Inhibition (% of WT) (MMP9) | Protease Inhibition (% of WT) (bovine trypsin) | Protease Inhibition (% of WT) (chymotrypsin) | Protease Inhibition (% of WT) (Elastase) | Protease Inhibition (% of WT) (MMP12) | Binder
1 | 350 % of WT | 110 % of WT | 50 % of WT | 40 % of WT | 90 % of WT | 390 % of WT | 330 % of WT | 70 % of WT | 100 % of WT | 100 % of WT | 50 % of WT |  | Variant A2M, bait region SEQ ID NO 108 (other) SVSGKPQYMVLVPSLLHTETTEKGCVLLSYLNETVTVSASLESVRGNRSLFTDLEAENDVLHCVAFAVPKSSSNEEVMFLTVQVKGPTQEFKKRTTVMVKNEDSLVFVQTDKSIYKPGQTVKFRVVSMDENFHPLNELIPLVYIQDPKGNRIAQWQSFQLEGGLKQFSFPLSSEPFQGSYKVVVQKKSGGRTEHPFTVEEFVLPKFEVQVTVPKIITILEEEMNVSVCGLYTYGKPVPGHVTVSICRKYSDASDCHGEDSQAFCEKFSGQLNSHGCFYQQVKTKVFQLKRKEYEMKLHTEAQIQEEGTVVELTGRQSSEITRTITKLSFVKVDSHFRQGIPFFGQVRLVDGKGVPIPNKVIFIRGNEANYYSNATTDEHGLVQFSINTTNVMGTSLTVRVNYKDRSPCYGYQWVSEEHEEAHHTAYLVFSPSKSFVHLEPMSHELPCGHTQTVQAHYILNGGTLLGLKKLSFYYLIMAKGGIVRTGTHGLLVKQEDMKGHFSISIPVKSDIAPVARLLIYAVLPTGDVIGDSAKYDVENCLANKVDLSFSPSQSLPASHAHLRVTAAPQSVCALRAVDQSVLLMKPDAELSASSVYNLLPEKDLTGFPGPLNDQDDEDCINRHNVYINGITYTPVSSTNEKDMYSFLEDMGLKAFTNSKIRKPKMCPQLEQYEMHGPEGLRVGEAIPMSIPTSEDLVVQIPENFFGVKLRKYFPETWIWDLVVVNSAGVAEVGVTVPDTITEWKAGAFCLSEDAGLGISSTASLRAFQPFFVELTMPYSVIRGEAFTLKATVLNYLPKCIRVSVQLEASPAFLAVPVEKEQAPHCICANGRQTVSWAVTPKSLGNVNFTVSAEALESQELCGTEVPSVPEHGRKDTVIKPLLVEPEGLEKETTFNSLLCPSGGEVSEELSLKLPPNVVEESARASVSVLGDILGSAMQNTQNLLQMPYGCGEQNMVLFAPNIYVLDYLNETQQLTPEIKSKAIGYLNTGYQRQLNYKHYDGSYSTFGERYGRNQGNTWLTAFVLKTFAQARAYIFIDEAHITQALIWLSQRQKDNGCFRSSGSLLNNAIKGGVEDEVTLSAYITIALLEIPLTVTHPVVRNALFCLESAWKTAQEGDHGSHVYTKALLAYAFALAGNQDKRKEVLKSLNEEAVKKDNSVHWERPQKPKAPVGHFYEPQAPSAEVEMTSYVLLAYLTAQPAPTSEDLTSATNIVKWITKQQNAQGGFSSTQDTVVALHALSKYGAATFTRTGKAAQVTIQSSGTFSSKFQVDNNNRLLLQQVSLPELPGEYSMKVTGEGCVYLQTSLKYNILPEKEEFPFALGVQTLPQTCDEPKAHTSFQISLSVSYTGSRSASNMAIVDVKMVSGFIPLKPTVKMLERSNHVSRTEVSSNHVLIYLDKVSNQTLSLFFTVLQDVPVRDLKPAIVKVYDYYETDEFAIAEYNAPCSKDLGNADYKDDDDKGASHHHHHH
2 | 200 % of WT | 100 % of WT | 250 % of WT | 50 % of WT | 350 % of WT | 100 % of WT | 80 % of WT | 70 % of WT | 100 % of WT |  | 50 % of WT | 100 % of WT | Variant A2M, bait region SEQ ID NO 96 (other) SVSGKPQYMVLVPSLLHTETTEKGCVLLSYLNETVTVSASLESVRGNRSLFTDLEAENDVLHCVAFAVPKSSSNEEVMFLTVQVKGPTQEFKKRTTVMVKNEDSLVFVQTDKSIYKPGQTVKFRVVSMDENFHPLNELIPLVYIQDPKGNRIAQWQSFQLEGGLKQFSFPLSSEPFQGSYKVVVQKKSGGRTEHPFTVEEFVLPKFEVQVTVPKIITILEEEMNVSVCGLYTYGKPVPGHVTVSICRKYSDASDCHGEDSQAFCEKFSGQLNSHGCFYQQVKTKVFQLKRKEYEMKLHTEAQIQEEGTVVELTGRQSSEITRTITKLSFVKVDSHFRQGIPFFGQVRLVDGKGVPIPNKVIFIRGNEANYYSNATTDEHGLVQFSINTTNVMGTSLTVRVNYKDRSPCYGYQWVSEEHEEAHHTAYLVFSPSKSFVHLEPMSHELPCGHTQTVQAHYILNGGTLLGLKKLSFYYLIMAKGGIVRTGTHGLLVKQEDMKGHFSISIPVKSDIAPVARLLIYAVLPTGDVIGDSAKYDVENCLANKVDLSFSPSQSLPASHAHLRVTAAPQSVCALRAVDQSVLLMKPDAELSASSVYNLLPEKDLTGFPGPLNDQDDEDCINRHNVYINGITYTPVSSTNEKDMYSFLEDMGLKAFTNSKIRKPKMCPQLEQYEMHGPEGLRVGEGEGEGEGFYESDVMGRGHARLVHVEEPHTKLLRKYFPETWIWDLVVVNSAGVAEVGVTVPDTITEWKAGAFCLSEDAGLGISSTASLRAFQPFFVELTMPYSVIRGEAFTLKATVLNYLPKCIRVSVQLEASPAFLAVPVEKEQAPHCICANGRQTVSWAVTPKSLGNVNFTVSAEALESQELCGTEVPSVPEHGRKDTVIKPLLVEPEGLEKETTFNSLLCPSGGEVSEELSLKLPPNVVEESARASVSVLGDILGSAMQNTQNLLQMPYGCGEQNMVLFAPNIYVLDYLNETQQLTPEIKSKAIGYLNTGYQRQLNYKHYDGSYSTFGERYGRNQGNTWLTAFVLKTFAQARAYIFIDEAHITQALIWLSQRQKDNGCFRSSGSLLNNAIKGGVEDEVTLSAYITIALLEIPLTVTHPVVRNALFCLESAWKTAQEGDHGSHVYTKALLAYAFALAGNQDKRKEVLKSLNEEAVKKDNSVHWERPQKPKAPVGHFYEPQAPSAEVEMTSYVLLAYLTAQPAPTSEDLTSATNIVKWITKQQNAQGGFSSTQDTVVALHALSKYGAATFTRTGKAAQVTIQSSGTFSSKFQVDNNNRLLLQQVSLPELPGEYSMKVTGEGCVYLQTSLKYNILPEKEEFPFALGVQTLPQTCDEPKAHTSFQISLSVSYTGSRSASNMAIVDVKMVSGFIPLKPTVKMLERSNHVSRTEVSSNHVLIYLDKVSNQTLSLFFTVLQDVPVRDLKPAIVKVYDYYETDEFAIAEYNAPCSKDLGNADYKDDDDKGASHHHHHH
